{"source": "patent US10981980B2", "about": "“Polypeptide targeting aptamers for characterization, capture, and clinical management of circulating tumor cells” (Counterpoint Biomedica LLC, priority 2016, dated 2021)", "note": "*: point of attachment. FITC = O=C1OC2(c3ccc(O)cc3Oc3cc(O)ccc32)c2ccc(NC(=S)*)cc21; Ahx = NCCCCCC(=O)O", "data": [{"target": "purified recombinant His-tagged VIM (Homo sapiens, UniProt P08670)", "sequence (P08670 whole entry)": "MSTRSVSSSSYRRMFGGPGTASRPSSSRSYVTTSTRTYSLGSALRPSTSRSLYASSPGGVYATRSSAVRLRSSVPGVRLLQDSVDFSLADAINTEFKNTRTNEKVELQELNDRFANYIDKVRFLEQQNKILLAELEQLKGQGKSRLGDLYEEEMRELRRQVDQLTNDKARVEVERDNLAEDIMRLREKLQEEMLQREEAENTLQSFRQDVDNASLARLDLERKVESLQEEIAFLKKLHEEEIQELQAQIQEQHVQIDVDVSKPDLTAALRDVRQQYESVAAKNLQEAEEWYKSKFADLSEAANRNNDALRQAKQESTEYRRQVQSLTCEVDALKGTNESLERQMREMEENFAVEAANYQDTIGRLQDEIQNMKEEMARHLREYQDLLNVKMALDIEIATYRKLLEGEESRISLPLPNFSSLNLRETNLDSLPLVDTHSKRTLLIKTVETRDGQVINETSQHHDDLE", "assay": "IMAC pull-down / comparative evaluation of vimentin-binding aptamers (net fluorescent signal with and without r-vimentin)", "settings": "His-Tag beads, FIG. 5", "from_the_text": "FIG. 4 is a schematic and photograph of a IMAC Pull-down assay. The numbers 1, 2, 4, 7, 9, 11, 14, 16, 17, and 18 under the tubes correspond to aptamers consisting of SEQ ID NOs: 1, 2, 4, 7, 9, 11, 14, 16, 17, and 18, respectively. IMAC=[…]/Ni- or Metal-chelate chromatography.\nFIG. 5 is a graph showing a comparative evaluation of vimentin-binding aptamers. The numbers 1, 2, 4, 7, 9, 11, 14, 16, 17, 18, 22, and 23 under the graph correspond to aptamers consisting of SEQ ID NOs: 1, 2, 4, 7, 9, 11, 14, 16, 17, 18, 49, and 51, respectively.\nAptamers containing VIM binding domains were allowed to associate with purified recombinant His-tagged VIM, followed by the addition of His-Tag beads, which were then used to concentrate the His-VIM and associated aptamers (see FIG. 4). Numbers below the tubes in FIG. 4 reading from left to right, top to bottom, correspond to aptamers that include SEQ ID NOs: 1, 2, 4, 7, 9, 11, 14, 16, 17, and 18, respectively.\nThe comparative binding efficiency of the aptamers was evaluated by quantifying the net fluorescent signal in the presence and absence of vimentin (e.g., r-vimentin)(see FIG. 5). Numbers 1, 2, 4, 7, 9, 11, 14, 16, 17, 18, 22, and 23 below the graph correspond to aptamers that include SEQ ID NOs: 1, […], 4, 7, […], 11, 14, 16, 17, 18, 49, and 51, respectively. VIM-binding sequences from Phage Display studies were positive.", "values": [{"substance": "(FITC-Ahx)AGKKPSVTVTNVFLYNRPLNSTE-free acid ({FITC-Ahx}-AGKKPSVTVTNVFLYNRPLNSTE-OH; SMILES CC(C)C[C@H](NC(=O)[C@H](Cc1ccccc1)NC(=O)[C@@H](NC(=O)[C@H](CC(N)=O)NC(=O)[C@@H](NC(=O)[C@@H](NC(=O)[C@@H](NC(=O)[C@@H](NC(=O)[C@H](CO)NC(=O)[C@@H]1CCCN1C(=O)[C@H](CCCCN)NC(=O)[C@H](CCCCN)NC(=O)CNC(=O)[C@H](C)NC(=O)CCCCCNC(=S)Nc1ccc2c(c1)C(=O)OC21c2ccc(O)cc2Oc2cc(O)ccc21)C(C)C)[C@@H](C)O)C(C)C)[C@@H](C)O)C(C)C)C(=O)N[C@@H](Cc1ccc(O)cc1)C(=O)N[C@@H](CC(N)=O)C(=O)N[C@@H](CCCNC(=N)N)C(=O)N1CCC[C@H]1C(=O)N[C@@H](CC(C)C)C(=O)N[C@@H](CC(N)=O)C(=O)N[C@@H](CO)C(=O)N[C@H](C(=O)N[C@@H](CCC(=O)O)C(=O)O)[C@@H](C)O) [Aptamer #23]", "comparative binding efficiency (net fluorescent signal in the presence and absence of vimentin)": "Strong binding"}, {"substance": "acetyl-TRKRIRIQRGPGRAFVTIGGK(FITC)-amide (Ac-TRKRIRIQRGPGRAFVTIGGK(FITC)-NH2; SMILES CC[C@H](C)[C@H](NC(=O)[C@H](CCCNC(=N)N)NC(=O)[C@@H](NC(=O)[C@H](CCCNC(=N)N)NC(=O)[C@H](CCCCN)NC(=O)[C@H](CCCNC(=N)N)NC(=O)[C@@H](NC(C)=O)[C@@H](C)O)[C@@H](C)CC)C(=O)N[C@@H](CCC(N)=O)C(=O)N[C@@H](CCCNC(=N)N)C(=O)NCC(=O)N1CCC[C@H]1C(=O)NCC(=O)N[C@@H](CCCNC(=N)N)C(=O)N[C@@H](C)C(=O)N[C@@H](Cc1ccccc1)C(=O)N[C@H](C(=O)N[C@H](C(=O)N[C@H](C(=O)NCC(=O)NCC(=O)N[C@@H](CCCCNC(=S)Nc1ccc2c(c1)C(=O)OC21c2ccc(O)cc2Oc2cc(O)ccc21)C(N)=O)[C@@H](C)CC)[C@@H](C)O)C(C)C) [Aptamer #17]", "comparative binding efficiency (net fluorescent signal in the presence and absence of vimentin)": "Strong binding"}, {"substance": "(FITC-Ahx)AGKKPRVTVTNVFLYNRPLNSTE-free acid ({FITC-Ahx}-AGKKPRVTVTNVFLYNRPLNSTE-OH; SMILES CC(C)C[C@H](NC(=O)[C@H](Cc1ccccc1)NC(=O)[C@@H](NC(=O)[C@H](CC(N)=O)NC(=O)[C@@H](NC(=O)[C@@H](NC(=O)[C@@H](NC(=O)[C@@H](NC(=O)[C@H](CCCNC(=N)N)NC(=O)[C@@H]1CCCN1C(=O)[C@H](CCCCN)NC(=O)[C@H](CCCCN)NC(=O)CNC(=O)[C@H](C)NC(=O)CCCCCNC(=S)Nc1ccc2c(c1)C(=O)OC21c2ccc(O)cc2Oc2cc(O)ccc21)C(C)C)[C@@H](C)O)C(C)C)[C@@H](C)O)C(C)C)C(=O)N[C@@H](Cc1ccc(O)cc1)C(=O)N[C@@H](CC(N)=O)C(=O)N[C@@H](CCCNC(=N)N)C(=O)N1CCC[C@H]1C(=O)N[C@@H](CC(C)C)C(=O)N[C@@H](CC(N)=O)C(=O)N[C@@H](CO)C(=O)N[C@H](C(=O)N[C@@H](CCC(=O)O)C(=O)O)[C@@H](C)O) [Aptamer #22]", "comparative binding efficiency (net fluorescent signal in the presence and absence of vimentin)": "Strong binding"}]}, {"system": "collagen-agarose beads", "assay": "Collagen agarose binding assay", "settings": "loaded in PBS pH 7.4, stringent washing, 10 column volumes of 1M NaCl in PBST, FIG. 3", "from_the_text": "FIG. 3 is a schematic and a photograph of a collagen agarose binding assay. Apt #1 is an aptamer consisting of SEQ ID NO: 1; Apt #7 is an aptamer consisting of SEQ ID NO: 7; Apt #19 is an aptamer consisting of SEQ ID NO: 19; and Apt #20 is an aptamer consisting of SEQ ID NO: 20. CBD=collagen-binding domain; CBD1=bovine vWF sequence comprising SEQ ID NO: 22; CBD2=human vWF sequence comprising SEQ ID NO: 23. […] Aptamers and reporters were mixed and loaded under mild binding conditions (PBS, pH 7.4), followed by washing with increasing concentrations of salt and/or detergent (PBST, using Tween 20). Stringent washing generally includes 10 column volumes of 1M NaCl in PBST, pH 7.4).", "values": [{"substance": "acetyl-VNTANSTGGSGARRGVRVAWREPGRMELNMPHGGSGK(FITC)-amide (Ac-VNTANSTGGSGARRGVRVAWREPGRMELNMPHGGSGK(FITC)-NH2; SMILES CSCC[C@H](NC(=O)[C@H](CCCNC(=N)N)NC(=O)CNC(=O)[C@@H]1CCCN1C(=O)[C@H](CCC(=O)O)NC(=O)[C@H](CCCNC(=N)N)NC(=O)[C@H](Cc1c[nH]c2ccccc12)NC(=O)[C@H](C)NC(=O)[C@@H](NC(=O)[C@H](CCCNC(=N)N)NC(=O)[C@@H](NC(=O)CNC(=O)[C@H](CCCNC(=N)N)NC(=O)[C@H](CCCNC(=N)N)NC(=O)[C@H](C)NC(=O)CNC(=O)[C@H](CO)NC(=O)CNC(=O)CNC(=O)[C@@H](NC(=O)[C@H](CO)NC(=O)[C@H](CC(N)=O)NC(=O)[C@H](C)NC(=O)[C@@H](NC(=O)[C@H](CC(N)=O)NC(=O)[C@@H](NC(C)=O)C(C)C)[C@@H](C)O)[C@@H](C)O)C(C)C)C(C)C)C(=O)N[C@@H](CCC(=O)O)C(=O)N[C@@H](CC(C)C)C(=O)N[C@@H](CC(N)=O)C(=O)N[C@@H](CCSC)C(=O)N1CCC[C@H]1C(=O)N[C@@H](Cc1c[nH]cn1)C(=O)NCC(=O)NCC(=O)N[C@@H](CO)C(=O)NCC(=O)N[C@@H](CCCCNC(=S)Nc1ccc2c(c1)C(=O)OC21c2ccc(O)cc2Oc2cc(O)ccc21)C(N)=O) [Aptamer #7]", "binding to collagen-agarose beads": "bind tightly"}, {"substance": "acetyl-RRGVRVAWREPGRMELNMPHGGSGK(FITC)-amide (Ac-RRGVRVAWREPGRMELNMPHGGSGK(FITC)-NH2; SMILES CSCC[C@H](NC(=O)[C@H](CCCNC(=N)N)NC(=O)CNC(=O)[C@@H]1CCCN1C(=O)[C@H](CCC(=O)O)NC(=O)[C@H](CCCNC(=N)N)NC(=O)[C@H](Cc1c[nH]c2ccccc12)NC(=O)[C@H](C)NC(=O)[C@@H](NC(=O)[C@H](CCCNC(=N)N)NC(=O)[C@@H](NC(=O)CNC(=O)[C@H](CCCNC(=N)N)NC(=O)[C@H](CCCNC(=N)N)NC(C)=O)C(C)C)C(C)C)C(=O)N[C@@H](CCC(=O)O)C(=O)N[C@@H](CC(C)C)C(=O)N[C@@H](CC(N)=O)C(=O)N[C@@H](CCSC)C(=O)N1CCC[C@H]1C(=O)N[C@@H](Cc1c[nH]cn1)C(=O)NCC(=O)NCC(=O)N[C@@H](CO)C(=O)NCC(=O)N[C@@H](CCCCNC(=S)Nc1ccc2c(c1)C(=O)OC21c2ccc(O)cc2Oc2cc(O)ccc21)C(N)=O) [Aptamer #20]", "binding to collagen-agarose beads": "bind tightly"}, {"substance": "acetyl-STRSVSSSSYRRMFGGPGTASK(FITC)-amide (Ac-STRSVSSSSYRRMFGGPGTASK(FITC)-NH2; SMILES CSCC[C@H](NC(=O)[C@H](CCCNC(=N)N)NC(=O)[C@H](CCCNC(=N)N)NC(=O)[C@H](Cc1ccc(O)cc1)NC(=O)[C@H](CO)NC(=O)[C@H](CO)NC(=O)[C@H](CO)NC(=O)[C@H](CO)NC(=O)[C@@H](NC(=O)[C@H](CO)NC(=O)[C@H](CCCNC(=N)N)NC(=O)[C@@H](NC(=O)[C@H](CO)NC(C)=O)[C@@H](C)O)C(C)C)C(=O)N[C@@H](Cc1ccccc1)C(=O)NCC(=O)NCC(=O)N1CCC[C@H]1C(=O)NCC(=O)N[C@H](C(=O)N[C@@H](C)C(=O)N[C@@H](CO)C(=O)N[C@@H](CCCCNC(=S)Nc1ccc2c(c1)C(=O)OC21c2ccc(O)cc2Oc2cc(O)ccc21)C(N)=O)[C@@H](C)O) [Aptamer #9]", "binding to collagen-agarose beads": "bind tightly"}]}]}
